Earlier results in article PMC4414177, “A novel orally active water-soluble inhibitor of human glutathione transferase exerts a potent and selective antitumor activity against human melanoma xenografts” (Oncotarget, 2015).

Target: GSTP1-1 (Homo sapiens) (UniProt P09211)
Assay: ELISA

GSTP1-1 (Homo sapiens), sequence (P09211 2-210): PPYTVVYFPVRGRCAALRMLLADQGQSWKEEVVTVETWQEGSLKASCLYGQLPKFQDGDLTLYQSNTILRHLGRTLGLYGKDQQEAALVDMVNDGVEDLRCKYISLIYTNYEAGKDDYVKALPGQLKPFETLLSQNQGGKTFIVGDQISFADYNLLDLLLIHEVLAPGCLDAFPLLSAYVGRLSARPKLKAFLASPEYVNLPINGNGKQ
TRAF2 CTD, sequence (Q12933 310-501): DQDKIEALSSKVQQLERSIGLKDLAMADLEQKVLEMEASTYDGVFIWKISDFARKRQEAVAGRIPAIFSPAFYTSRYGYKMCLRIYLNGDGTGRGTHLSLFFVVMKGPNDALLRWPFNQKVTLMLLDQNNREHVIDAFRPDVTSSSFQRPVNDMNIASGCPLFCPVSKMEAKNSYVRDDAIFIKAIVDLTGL
JNK1α2, sequence (P45983 whole entry): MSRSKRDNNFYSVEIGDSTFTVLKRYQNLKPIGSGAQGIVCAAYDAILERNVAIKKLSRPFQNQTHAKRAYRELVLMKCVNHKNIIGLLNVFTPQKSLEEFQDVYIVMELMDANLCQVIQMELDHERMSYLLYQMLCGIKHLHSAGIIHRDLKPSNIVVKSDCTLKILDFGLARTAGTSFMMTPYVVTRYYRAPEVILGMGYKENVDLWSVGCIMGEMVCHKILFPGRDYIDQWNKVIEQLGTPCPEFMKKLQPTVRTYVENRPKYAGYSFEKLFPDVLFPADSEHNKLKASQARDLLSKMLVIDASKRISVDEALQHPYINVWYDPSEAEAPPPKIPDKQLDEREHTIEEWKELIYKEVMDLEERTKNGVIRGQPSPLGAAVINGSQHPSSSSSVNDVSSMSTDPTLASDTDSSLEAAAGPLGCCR

Substance	Kd [µM]
JNK1α2 (from UniProt P45983)	> 10
TRAF2 CTD (from UniProt Q12933)	> 5
